Assay results taken from US6116237A, “Methods of dry powder inhalation” (priority 1997, dated 2000).

Test: Systemic delivery of calcitonin as model peptide following dosing with the Spiros system, compared to subcutaneous injection
Assay type: in vivo
Details: calcitonin/lactose blend, estimated
Source text: 5. Using calcitonin as a model peptide for systemic delivery, the bioactivity following dosing with the Spiros system has been estimated to be greater than 20% compared to a subcutaneous injection.

calcitonin
bioactivity following dosing with the Spiros system compared to a subcutaneous injection (systemic availability): greater than 20%
